Measurements from article PMC12747262 (bioRxiv, 2025).

T1: TTC7B (from the E. coli dimers) (UniProt Q86TV6 1-843)
T1 sequence: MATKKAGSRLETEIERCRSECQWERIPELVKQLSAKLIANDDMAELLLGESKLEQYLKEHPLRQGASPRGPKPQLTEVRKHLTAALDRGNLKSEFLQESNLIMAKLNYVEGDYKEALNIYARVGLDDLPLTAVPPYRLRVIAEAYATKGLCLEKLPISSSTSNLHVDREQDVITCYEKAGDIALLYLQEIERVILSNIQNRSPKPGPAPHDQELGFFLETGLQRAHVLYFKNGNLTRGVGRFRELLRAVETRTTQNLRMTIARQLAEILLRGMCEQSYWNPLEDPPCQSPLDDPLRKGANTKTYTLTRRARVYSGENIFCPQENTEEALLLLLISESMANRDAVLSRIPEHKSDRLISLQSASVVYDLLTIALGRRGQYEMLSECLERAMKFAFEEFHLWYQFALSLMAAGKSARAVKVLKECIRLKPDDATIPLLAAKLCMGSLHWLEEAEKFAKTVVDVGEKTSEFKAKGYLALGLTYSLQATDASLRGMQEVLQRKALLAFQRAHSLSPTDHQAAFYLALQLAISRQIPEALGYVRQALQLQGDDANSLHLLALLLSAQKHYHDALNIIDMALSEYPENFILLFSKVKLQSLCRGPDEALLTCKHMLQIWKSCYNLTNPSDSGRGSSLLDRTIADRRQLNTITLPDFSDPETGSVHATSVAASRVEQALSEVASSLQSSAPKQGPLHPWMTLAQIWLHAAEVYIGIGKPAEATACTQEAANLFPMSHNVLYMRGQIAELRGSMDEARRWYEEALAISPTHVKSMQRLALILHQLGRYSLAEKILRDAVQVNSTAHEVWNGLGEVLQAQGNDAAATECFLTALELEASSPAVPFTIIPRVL

B1: FAM126A (1–308) (from the Sf9 complexes) (domain or fragment)
chain: MFTSEKGVVEEWLSEFKTLPETSLPNYATNLKDKSSLVSSLYKVIQEPQSELLEPVCHQLFEFYRSGEEQLLQFTLQFLPELIWCYLAVSASRNVHSSGCIEALLLGVYNLEIVDKQGHTKVLSFTIPSLSKPSVYHEPSSIGSMALTESALSQHGLSKVVYSGPHPQREMLTAQNRFEVLTFLLLCYNAALTYMPSVSLQSLCQICSRICVCGYPRQHVRKYKGISSRIPVSSGFMVQMLTGIYFAFYNGEWDLAQKALDDIIYRAQLELYPEPLLVANAIKASLPHGPMKSNKEGTRCIQVEITPT
B2: His-tagged MBP-EFR3B (716–787) (domain or fragment)
chain: VPAEEITYETLKKAIVDSVAVEEQERERRRQVVEKFQKAPFEEIAAHCGARASLLQSKLNQIFEITIRPPPS
B3: FAM126B (1–308) (from the E. coli dimer) (domain or fragment)
chain: MLGTDRCVVEEWLSEFKALPDTQITSYAATLHRKKTLVPALYKVIQDSNNELLEPVCHQLFELYRSSEVRLKRFTLQFLPELMWVYLRLTVSRDRQSNGCIEALLLGIYNLEIADKDGNNKVLSFTIPSLSKPSIYHEPSTIGSMALTEGALCQHDLIRVVYSDLHPQRETFTAQNRFEVLSFLMLCYNSAIVYMPASSYQSLCRMGSRVCVSGFPRQHEKHWKELCGRIVLDPEFMVQLLTGVYYAMYNGQWDLGQEVLDDIIYRAQLELFSQPLLVANAMKNSLPFDAPDSTQEGQKVLKVEVTPT
B4: FAM126B (1–308) (from the Sf9 dimer) (domain or fragment)
chain: B3 chain
B5: TTC7A (natural protein)
chain: MAAKGAHGSYLKVESELERCRAEGHWDRMPELVRQLQTLSMPGGGGNRRGSPSAAFTFPDTDDFGKLLLAEALLEQCLKENHAKIKDSMPLLEKNEPKMSEAKNYLSSILNHGRLSPQYMCEAMLILGKLHYVEGSYRDAISMYARAGIDDMSMENKPLYQMRLLSEAFVIKGLSLERLPNSIASRFRLTEREEEVITCFERASWIAQVFLQELEKTTNNSTSRHLKGCHPLDYELTYFLEAALQSAYVKNLKKGNIVKGMRELREVLRTVETKATQNFKVMAAKHLAGVLLHSLSEECYWSPLSHPLPEFMGKEESSFATQALRKPHLYEGDNLYCPKDNIEEALLLLLISESMATRDVVLSRVPEQEEDRTVSLQNAAAIYDLLSITLGRRGQYVMLSECLERAMKFAFGEFHLWYQVALSMVACGKSAYAVSLLRECVKLRPSDPTVPLMAAKVCIGSLRWLEEAEHFAMMVISLGEEAGEFLPKGYLALGLTYSLQATDATLKSKQDELHRKALQTLERAQQLAPSDPQVILYVSLQLALVRQISSAMEQLQEALKVRKDDAHALHLLALLFSAQKHHQHALDVVNMAITEHPENFNLMFTKVKLEQVLKGPEEALVTCRQVLRLWQTLYSFSQLGGLEKDGSFGEGLTMKKQSGMHLTLPDAHDADSGSRRASSIAASRLEEAMSELTMPSSVLKQGPMQLWTTLEQIWLQAAELFMEQQHLKEAGFCIQEAAGLFPTSHSVLYMRGRLAEVKGNLEEAKQLYKEALTVNPDGVRIMHSLGLMLSRLGHKSLAQKVLRDAVERQSTCHEAWQGLGEVLQAQGQNEAAVDCFLTALELEASSPVLPFSIIPREL
B6: His-tagged MBP-EFR3A (721–791) (domain or fragment)
chain: SNTEEITFEALKKAIDTSGMEEQEKEKRRLVIEKFQKAPFEEIAAQCESKANLLHDRLAQILELTIRPPPS
B7: TTC7B (from the Sf9 PI4KA complex) (natural protein)
chain: T1 sequence

Experiments:
[1] = target: B5; experiment: SEC
[2] = target: TTC7B-FAM126A (1–308) heterodimer (UniProt Q86TV6;Q9BYI3); experiment: BLI
[3] = target: TTC7B-FAM126B (1–308) heterodimer (UniProt Q86TV6;Q8IXS8); experiment: BLI
[4] = target: TTC7A-FAM126A (1–308) heterodimer (UniProt Q9ULT0;Q9BYI3); experiment: BLI
[5] = target: TTC7A-FAM126B (1–308) heterodimer (UniProt Q9ULT0;Q8IXS8); experiment: BLI
[6] = target: T1, TTC7B (from the E. coli dimers); experiment: SEC
[7] = target: T2, PI4KA (UniProt P42356 1-2102); experiment: SEC
[8] = target: PI4KA-TTC7A-FAM126A (1–308) complex (UniProt P42356;Q9ULT0;Q9BYI3); experiment: BLI
[9] = target: PI4KA-TTC7B-FAM126A (1–308) complex (UniProt P42356;Q86TV6;Q9BYI3); experiment: BLI
[10] = target: T2, PI4KA; experiment: cryo-EM structure

Binder: B1
- binding result [1]: binds

Binder: B2
- Kd [2]: ~0.3 nM
- Kd [3]: ~0.3 nM
- binding result [4]: binds
- binding result [5]: binds

Binder: B3
- binding result [6]: binds

Binder: B4
- binding result [1]: binds

Binder: B5
- binding result [7]: binds

Binder: B6
- Kd [8]: 0.34 ± 0.13 nM
- Kd [2]: 0.041 ± 0.025 nM
- Kd [3]: ~0.3 nM
- Kd [4]: ~0.3 nM
- Kd [5]: ~0.3 nM
- Kd [9]: 0.043 ± 0.014 nM

Binder: B7
- binding result [10]: binds
